The text below walks through data of paper doi:10.1101/2023.09.01.555870 (bioRxiv, 2023).

This series concerns the molecule itself. The series is described as follows: NMR solution structure.

B1: carboxy-terminal domain (CTD) fragment of λ Ea22 (102-182) (domain or fragment, bacteriophage λ)
chain: SNEVREDGNQFLVVRHPGKTPVIKHCTGDLEEFLRQLIEQDPLVTIDIITHRYYGVGGQWVQDAGEYLHMMSDAGIRIKGEIETAV
For the protein B1, the binding result is “binds”.
